Measured values published in article PMC11446282.

test system: PP2A-B55α; test: Single alanine mutational scan, YFP-tagged interactors immunoprecipitated from HeLa cells, Western blot; format: binding, human; conditions: single alanine mutant of YFP-tagged AMOTL2

Molecule	Experimental % binding [%]
AMOTL2 Q17: AMOTL2, Q17 to alanine (protein, UniProt Q9Y2J4 1-779, looked up, variant Q17A) Angiomotin-like protein 2: MRTLEDSSGTVLHRLIAEQLRYGNLTETRTLLAIQQQALRGGAGTGGTGSPQASLEILAPEDSQVLQQATRQEPQGQEHQGGENHLAENTLYRLCPQPSKGEELPTYEEAKAHSQYYAAQQAGTRPHAGDRDPRGAPGGSRRQDEALRELRHGHVRSLSERLLQLSLERNGARAPSHMSSSHSFPQLARNQQGPPLRGPPAEGPESRGPPPQYPHVVLAHETTTAVTDPRYRARGSPHFQHAEVRILQAQVPPVFLQQQQQYQYLQQSQEHPPPPHPAALGHGPLSSLSPPAVEGPVSAQASSATSGSAHLAQMEAVLRENARLQRDNERLQRELESSAEKAGRIEKLESEIQRLSEAHESLTRASSKREALEKTMRNKMDSEMRRLQDFNRDLRERLESANRRLASKTQEAQAGSQDMVAKLLAQSYEQQQEQEKLEREMALLRGAIEDQRRRAELLEQALGNAQGRAARAEEELRKKQAYVEKVERLQQALGQLQAACEKREQLELRLRTRLEQELKALRAQQRQAGAPGGSSGSGGSPELSALRLSEQLREKEEQILALEADMTKWEQKYLEERAMRQFAMDAAATAAAQRDTTLIRHSPQPSPSSSFNEGLLTGGHRHQEMESRLKVLHAQILEKDAVIKVLQQRSRRDPGKAIQGSLRPAKSVPSVFAAAAAGTQGWQGLSSSERQTADAPARLTTDRAPTEEPVVTAPPAAHAKHGSRDGSTQTEGPPDSTSTCLPPEPDSLLGCSSSQRAASLDSVATSRVQDLSDMVEILI	143
AMOTL2 E27: AMOTL2, E27 to alanine (protein, UniProt Q9Y2J4 1-779, looked up, variant E27A) Angiomotin-like protein 2: MRTLEDSSGTVLHRLIQEQLRYGNLTATRTLLAIQQQALRGGAGTGGTGSPQASLEILAPEDSQVLQQATRQEPQGQEHQGGENHLAENTLYRLCPQPSKGEELPTYEEAKAHSQYYAAQQAGTRPHAGDRDPRGAPGGSRRQDEALRELRHGHVRSLSERLLQLSLERNGARAPSHMSSSHSFPQLARNQQGPPLRGPPAEGPESRGPPPQYPHVVLAHETTTAVTDPRYRARGSPHFQHAEVRILQAQVPPVFLQQQQQYQYLQQSQEHPPPPHPAALGHGPLSSLSPPAVEGPVSAQASSATSGSAHLAQMEAVLRENARLQRDNERLQRELESSAEKAGRIEKLESEIQRLSEAHESLTRASSKREALEKTMRNKMDSEMRRLQDFNRDLRERLESANRRLASKTQEAQAGSQDMVAKLLAQSYEQQQEQEKLEREMALLRGAIEDQRRRAELLEQALGNAQGRAARAEEELRKKQAYVEKVERLQQALGQLQAACEKREQLELRLRTRLEQELKALRAQQRQAGAPGGSSGSGGSPELSALRLSEQLREKEEQILALEADMTKWEQKYLEERAMRQFAMDAAATAAAQRDTTLIRHSPQPSPSSSFNEGLLTGGHRHQEMESRLKVLHAQILEKDAVIKVLQQRSRRDPGKAIQGSLRPAKSVPSVFAAAAAGTQGWQGLSSSERQTADAPARLTTDRAPTEEPVVTAPPAAHAKHGSRDGSTQTEGPPDSTSTCLPPEPDSLLGCSSSQRAASLDSVATSRVQDLSDMVEILI	165
AMOTL2 Q19: AMOTL2, Q19 to alanine (protein, UniProt Q9Y2J4 1-779, looked up, variant Q19A) Angiomotin-like protein 2: MRTLEDSSGTVLHRLIQEALRYGNLTETRTLLAIQQQALRGGAGTGGTGSPQASLEILAPEDSQVLQQATRQEPQGQEHQGGENHLAENTLYRLCPQPSKGEELPTYEEAKAHSQYYAAQQAGTRPHAGDRDPRGAPGGSRRQDEALRELRHGHVRSLSERLLQLSLERNGARAPSHMSSSHSFPQLARNQQGPPLRGPPAEGPESRGPPPQYPHVVLAHETTTAVTDPRYRARGSPHFQHAEVRILQAQVPPVFLQQQQQYQYLQQSQEHPPPPHPAALGHGPLSSLSPPAVEGPVSAQASSATSGSAHLAQMEAVLRENARLQRDNERLQRELESSAEKAGRIEKLESEIQRLSEAHESLTRASSKREALEKTMRNKMDSEMRRLQDFNRDLRERLESANRRLASKTQEAQAGSQDMVAKLLAQSYEQQQEQEKLEREMALLRGAIEDQRRRAELLEQALGNAQGRAARAEEELRKKQAYVEKVERLQQALGQLQAACEKREQLELRLRTRLEQELKALRAQQRQAGAPGGSSGSGGSPELSALRLSEQLREKEEQILALEADMTKWEQKYLEERAMRQFAMDAAATAAAQRDTTLIRHSPQPSPSSSFNEGLLTGGHRHQEMESRLKVLHAQILEKDAVIKVLQQRSRRDPGKAIQGSLRPAKSVPSVFAAAAAGTQGWQGLSSSERQTADAPARLTTDRAPTEEPVVTAPPAAHAKHGSRDGSTQTEGPPDSTSTCLPPEPDSLLGCSSSQRAASLDSVATSRVQDLSDMVEILI	120
AMOTL2 R21: AMOTL2, R21 to alanine (protein, UniProt Q9Y2J4 1-779, looked up, variant R21A) Angiomotin-like protein 2: MRTLEDSSGTVLHRLIQEQLAYGNLTETRTLLAIQQQALRGGAGTGGTGSPQASLEILAPEDSQVLQQATRQEPQGQEHQGGENHLAENTLYRLCPQPSKGEELPTYEEAKAHSQYYAAQQAGTRPHAGDRDPRGAPGGSRRQDEALRELRHGHVRSLSERLLQLSLERNGARAPSHMSSSHSFPQLARNQQGPPLRGPPAEGPESRGPPPQYPHVVLAHETTTAVTDPRYRARGSPHFQHAEVRILQAQVPPVFLQQQQQYQYLQQSQEHPPPPHPAALGHGPLSSLSPPAVEGPVSAQASSATSGSAHLAQMEAVLRENARLQRDNERLQRELESSAEKAGRIEKLESEIQRLSEAHESLTRASSKREALEKTMRNKMDSEMRRLQDFNRDLRERLESANRRLASKTQEAQAGSQDMVAKLLAQSYEQQQEQEKLEREMALLRGAIEDQRRRAELLEQALGNAQGRAARAEEELRKKQAYVEKVERLQQALGQLQAACEKREQLELRLRTRLEQELKALRAQQRQAGAPGGSSGSGGSPELSALRLSEQLREKEEQILALEADMTKWEQKYLEERAMRQFAMDAAATAAAQRDTTLIRHSPQPSPSSSFNEGLLTGGHRHQEMESRLKVLHAQILEKDAVIKVLQQRSRRDPGKAIQGSLRPAKSVPSVFAAAAAGTQGWQGLSSSERQTADAPARLTTDRAPTEEPVVTAPPAAHAKHGSRDGSTQTEGPPDSTSTCLPPEPDSLLGCSSSQRAASLDSVATSRVQDLSDMVEILI	60
AMOTL2 L20: AMOTL2, L20 to alanine (protein, UniProt Q9Y2J4 1-779, looked up, variant L20A) Angiomotin-like protein 2: MRTLEDSSGTVLHRLIQEQARYGNLTETRTLLAIQQQALRGGAGTGGTGSPQASLEILAPEDSQVLQQATRQEPQGQEHQGGENHLAENTLYRLCPQPSKGEELPTYEEAKAHSQYYAAQQAGTRPHAGDRDPRGAPGGSRRQDEALRELRHGHVRSLSERLLQLSLERNGARAPSHMSSSHSFPQLARNQQGPPLRGPPAEGPESRGPPPQYPHVVLAHETTTAVTDPRYRARGSPHFQHAEVRILQAQVPPVFLQQQQQYQYLQQSQEHPPPPHPAALGHGPLSSLSPPAVEGPVSAQASSATSGSAHLAQMEAVLRENARLQRDNERLQRELESSAEKAGRIEKLESEIQRLSEAHESLTRASSKREALEKTMRNKMDSEMRRLQDFNRDLRERLESANRRLASKTQEAQAGSQDMVAKLLAQSYEQQQEQEKLEREMALLRGAIEDQRRRAELLEQALGNAQGRAARAEEELRKKQAYVEKVERLQQALGQLQAACEKREQLELRLRTRLEQELKALRAQQRQAGAPGGSSGSGGSPELSALRLSEQLREKEEQILALEADMTKWEQKYLEERAMRQFAMDAAATAAAQRDTTLIRHSPQPSPSSSFNEGLLTGGHRHQEMESRLKVLHAQILEKDAVIKVLQQRSRRDPGKAIQGSLRPAKSVPSVFAAAAAGTQGWQGLSSSERQTADAPARLTTDRAPTEEPVVTAPPAAHAKHGSRDGSTQTEGPPDSTSTCLPPEPDSLLGCSSSQRAASLDSVATSRVQDLSDMVEILI	98
AMOTL2 Y22: AMOTL2, Y22 to alanine (protein, UniProt Q9Y2J4 1-779, looked up, variant Y22A) Angiomotin-like protein 2: MRTLEDSSGTVLHRLIQEQLRAGNLTETRTLLAIQQQALRGGAGTGGTGSPQASLEILAPEDSQVLQQATRQEPQGQEHQGGENHLAENTLYRLCPQPSKGEELPTYEEAKAHSQYYAAQQAGTRPHAGDRDPRGAPGGSRRQDEALRELRHGHVRSLSERLLQLSLERNGARAPSHMSSSHSFPQLARNQQGPPLRGPPAEGPESRGPPPQYPHVVLAHETTTAVTDPRYRARGSPHFQHAEVRILQAQVPPVFLQQQQQYQYLQQSQEHPPPPHPAALGHGPLSSLSPPAVEGPVSAQASSATSGSAHLAQMEAVLRENARLQRDNERLQRELESSAEKAGRIEKLESEIQRLSEAHESLTRASSKREALEKTMRNKMDSEMRRLQDFNRDLRERLESANRRLASKTQEAQAGSQDMVAKLLAQSYEQQQEQEKLEREMALLRGAIEDQRRRAELLEQALGNAQGRAARAEEELRKKQAYVEKVERLQQALGQLQAACEKREQLELRLRTRLEQELKALRAQQRQAGAPGGSSGSGGSPELSALRLSEQLREKEEQILALEADMTKWEQKYLEERAMRQFAMDAAATAAAQRDTTLIRHSPQPSPSSSFNEGLLTGGHRHQEMESRLKVLHAQILEKDAVIKVLQQRSRRDPGKAIQGSLRPAKSVPSVFAAAAAGTQGWQGLSSSERQTADAPARLTTDRAPTEEPVVTAPPAAHAKHGSRDGSTQTEGPPDSTSTCLPPEPDSLLGCSSSQRAASLDSVATSRVQDLSDMVEILI	25
AMOTL2 E18: AMOTL2, E18 to alanine (protein, UniProt Q9Y2J4 1-779, looked up, variant E18A) Angiomotin-like protein 2: MRTLEDSSGTVLHRLIQAQLRYGNLTETRTLLAIQQQALRGGAGTGGTGSPQASLEILAPEDSQVLQQATRQEPQGQEHQGGENHLAENTLYRLCPQPSKGEELPTYEEAKAHSQYYAAQQAGTRPHAGDRDPRGAPGGSRRQDEALRELRHGHVRSLSERLLQLSLERNGARAPSHMSSSHSFPQLARNQQGPPLRGPPAEGPESRGPPPQYPHVVLAHETTTAVTDPRYRARGSPHFQHAEVRILQAQVPPVFLQQQQQYQYLQQSQEHPPPPHPAALGHGPLSSLSPPAVEGPVSAQASSATSGSAHLAQMEAVLRENARLQRDNERLQRELESSAEKAGRIEKLESEIQRLSEAHESLTRASSKREALEKTMRNKMDSEMRRLQDFNRDLRERLESANRRLASKTQEAQAGSQDMVAKLLAQSYEQQQEQEKLEREMALLRGAIEDQRRRAELLEQALGNAQGRAARAEEELRKKQAYVEKVERLQQALGQLQAACEKREQLELRLRTRLEQELKALRAQQRQAGAPGGSSGSGGSPELSALRLSEQLREKEEQILALEADMTKWEQKYLEERAMRQFAMDAAATAAAQRDTTLIRHSPQPSPSSSFNEGLLTGGHRHQEMESRLKVLHAQILEKDAVIKVLQQRSRRDPGKAIQGSLRPAKSVPSVFAAAAAGTQGWQGLSSSERQTADAPARLTTDRAPTEEPVVTAPPAAHAKHGSRDGSTQTEGPPDSTSTCLPPEPDSLLGCSSSQRAASLDSVATSRVQDLSDMVEILI	133
